Molecular target: E. coli ribosomal protein L16 (endogenous) (E. coli, UniProt A7ZSK2 1-136)
Experiment: co-immunoprecipitation with anti-GFP (GFP-nanotrap), SDS-PAGE, identification by LC-MS/MS

B1: GFP-YcfD (N-terminally GFP-tagged YcfD) (other)
chain: MEYQLTLNWPDFLERHWQKRPVVLKRGFNNFIDPISPDELAGLAMESEVDSRLVSHQDGKWQVSHGPFESYDHLGETNWSLLVQAVNHWHEPTAALMRPFRELPDWRIDDLMISFSVPGGGVGPHLDQYDVFIIQGTGRRRWRVGEKLQMKQHCPHPDLLQVDPFEAIIDEELEPGDILYIPPGFPHEGYALENAMNYSVGFRAPNTRELISGFADYVLQRELGGNYYSDPDVPPRAHPADVLPQEMDKLREMMLELINQPEHFKQWFGEFISQSRHELDIAPPEPPYQPDEIYDALKQGEVLVRLGGLRVLRIGDDVYANGEKIDSPHRPALDALASNIALTAENFGDALEDPSFLAMLAALVNSGYWFFEG
notes: also called green fluorescent protein (GFP)-tagged YcfD
B1: binds.
